Two sequences from US20060134788 can be followed below.

The data set has as its system T1, MJ1 integrase (phage phiFC1) (Enterococcus phage phiFC1).
T1 sequence: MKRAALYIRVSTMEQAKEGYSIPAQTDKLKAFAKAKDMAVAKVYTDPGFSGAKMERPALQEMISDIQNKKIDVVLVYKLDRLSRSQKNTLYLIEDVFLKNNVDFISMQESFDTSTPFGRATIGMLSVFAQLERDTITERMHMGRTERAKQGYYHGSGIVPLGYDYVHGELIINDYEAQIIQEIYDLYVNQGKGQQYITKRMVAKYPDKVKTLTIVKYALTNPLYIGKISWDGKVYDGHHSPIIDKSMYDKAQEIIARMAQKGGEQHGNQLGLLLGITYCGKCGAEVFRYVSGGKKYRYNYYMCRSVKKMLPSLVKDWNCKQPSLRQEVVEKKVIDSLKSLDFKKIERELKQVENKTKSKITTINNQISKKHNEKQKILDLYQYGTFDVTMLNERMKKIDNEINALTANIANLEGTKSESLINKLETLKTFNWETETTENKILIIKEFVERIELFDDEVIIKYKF
In words: cell_activity. The conditions noted are these: 396 cells without MJ1, FACS 72 h.

As to “GAAGATCTTGTTCTCGAGCATAGTCTCCTTCAAGTTTTGTTATATCTGATAATAGAGACTTTTCTTTTTGTTGTAAACTATTGATTGACAAATCTGGTCCTCCTTTAAAATATATAATTAATATTGGTTTAATTATACCATTCTATAGGTAAGAACAGTAATATGACCAAATTTAAATATCTTTTTATGCACTAATCAAAGTTTTCCTTACAAGCATTTNTTCAATTACGAGTTGATTTCTTTTATTCAAATGACCATAGACAGCTAGTTCAGATTTTTCGGGTAGCATTAGTAACATATTTGCTAATTCGTATTTGGAGACGATACAGTTTATAGTTTCGTCCTGTGTTACTAATGAGAATCGAACTAGCATTTTTGGGTACATACTTAACATTCTAATCTTTTCAACTACTCCTACATAATTAGTTTTCATAATATCGGCCTCCTAGTAATACAATTATACCGAATGCATGTTCGTATTGTCTATAGGTTTGTATAAATGTAATATTTTAGGTATATGATTTTGTTTATTAGTGTAAATAACACTATGTACCTAAAATTTATATTTAATAATTACCTCATCATCAAATAGTTCTATACGTTCAACAAACTCTTTGATGATAAGGATTTTATTTTCTGTAGTTTCAGTTTCCCAATTAAAAGTTTTTAACGTTTCAAGCTTATTAATTAATGACTCACTTTTGGTACCTTCTAAGTTTGCTATATTGGCAGTTAACGC (double strand) [attP 739 bp]”, the activity (fluorescent cells) (attP x attB integration in 293T cells) was 1240. For “CGGCCATTGAATTAGGGTGTCGAATTTATCAAAGTAGTCAAATCAAATTTGGCAAAGTTACGTCCAGTCAACAAGTCGCTCAACGATTACTCCAAGAGATGAAGGGGCTGCAACAAGAACATTTAATTTGTATTTACTTGAATACCAAGAATGACATTATCCAACAGAAAACGATTTTCAAAGGATCACTGAATCAAAGTATTGCTCATCCACGCGAAATTTTTCGGGAAGCGGTTAAATATTCTTCTGCTCGCATACTATTAGCTCATAATCATCCATCTGGCAATCCG (double strand) [attB 290 bp]”, the activity (fluorescent cells) (attB x attP integration in 293T cells) was found to be 1240.
